The values below come from article PMC11827635 (Science Advances, 2025).

The labels stand for the following.
B1: αE-catenin α(CA), as it stands in the tetramer and pentamer (natural protein, mouse, UniProt P26231 1-906, looked up)
chain: MTAVHAGNINFKWDPKSLEIRTLAVERLLEPLVTQVTTLVNTNSKGPSNKKRGRSKKAHVLAASVEQATENFLEKGDKIAKESQFLKEELVVAVEDVRKQGDLMKSAAGEFADDPCSSVKRGNMVRAARALLSAVTRLLILADMADVYKLLVQLKVVEDGILKLRNAGNEQDLGIQYKALKPEVDKLNIMAAKRQQELKDVGNRDQMAAARGILQKNVPILYTASQACLQHPDVAAYKANRDLIYKQLQQAVTGISNAAQATASDDAAQHQGGSGGELAYALNNFDKQIIVDPLSFSEERFRPSLEERLESIISGAALGADSSCTEDDRRERIVAECNAVRQALQDLLSEYMGNAGRKERSDALNSAIDKMTKKTRDLRRQLRKAVMDHVSDSFLETNVPLLVLIEAAKNGNEKEVKEYAQVFREHANKLIEVANLACSISNNEEGVKLVRMSASQLEALCPQVINAALALAAKPQSKLAQENMDLFKEQWEKQVRVLTDAVDDITSIDDFLAVSENHILEDVNKCVIALQEKDVDGLDRTAGAIRGRAAEVIHVVTSEMDNYEPGVYTEKVLEATKLLSNTVMPRFTEQVEAAVEALSSDPAQPMDENEFIDASRLVYDGIRDIRKAVLMIRTPEELDDSDFETEDFDVRSRTSVQTEDDQLIAGQSARAIMAQLPQEQKAKIAEQVASFQEEKSKLDAEVSKWDDSGNDIIVLAKQMCMIMMEMTDFTRGKGPLKNTSDVISAAKKIAEAGSRMDKLGRTIADHCPDSACKQDLLAYLQRIALYCHQLNICSKVKAEVQNLGGELVVSGVDSAMSLIQAAKNLMNAVVQTVKASYVASTKYQKSQGMASLNLPAVSWKMKAPEKKPLVKREKQDETQTKIKRASQKKHVNPVQALSEFKAMDSI
notes: αE-catenin, α(CA); residues 690 to 903 are modelled in PDB 9DVA; single chain of m5, m6, m11 and m18, written for the pairs that touch; also called αE-catenin ABD (in the structure); ABD1; source: FreeStyle 293-F, co-expressed and purified within the cadherin-catenin–vinculin complex
B2: afadin coiled-coil region (afadin-CC) (domain or fragment, mouse, UniProt Q9QZQ1-3 1393-1602, looked up)
chain: ANQAGPQSAQVAAAEWKKREEHQRWYEKEKARLEEERERKRREQERKLGQMRSQTLNPASFSPLATQAKPEKPSTLQRPQETVIRELQPQQQPRTIERKDLQYITISKEELSSGDSLSPDPWKRDAREKLEKQQQMHIVDMLSKEIHELQNKVDRTAEESDRLRKLMLEWQFQKRLQESKQKDEDDDEEEDDDVDTMLIMQRLEAERRAR
notes: afadin, coiled-coil region (afadin-CC); residues 1508 to 1578 are modelled in PDB 9DVA; also called afadin-CC domain; source: FreeStyle 293-F, purified (anti-GFP beads, TEV, MonoQ, Superdex 200); not shown: GFP, N-terminal, cleaved

Series [1] concerns the molecule itself. The series can be described thus: cryo-EM structure; 2.5 μM tetramer premixed with 5 μM afadin-CC, added to 0.6 μM F-actin on the grid; straight filaments 3.1 Å, curved filaments decorated along one strand 4.1 Å.
Series [2] deals with B1. The description is as above. To be noted: both partners purified.

As to B1, the binding result in series [1] is given as “binds”.

Turning to B2, the binding result in series [2] is on record as “binds”.
